Assay results reported in patent US20220073646A1 (Hoffmann-La Roche, published 2022).
Like-named read-outs stand apart in the source and are kept apart here. Values belong to the binder of their own block, whether it stands above or below them.

Key:
[1] = molecular target: T1, mouse 4-1BB on activated mouse splenocytes (mouse, UniProt P20334 24-256); assay: flow cytometry, activated murine CD8 T cells
Protocol: (§1) Cells were incubated for 30 min at 4° C., washed twice with 200 μL/well FACS-buffer and resuspended for fixation with 50 μL/well DPBS containing 1% (v/v) formaldehyde. The next day cells were resuspended in 200 μL/well FACS buffer and acquired using the 2-laser Cantoll (BD Bioscience with DIVA software) or 5-laser Fortessa (BD Bioscience with DIVA software). Gates were set on CD8⁺ and CD4⁺ T cells and the median fluorescence intensity (MFI) of the secondary detection antibody was used to analyze binding of primary antibodies. Using Graph Pad Prism (Graph Pad Software Inc.) data was baselined by subtracting the blank values (no primary antibody added) and the EC₅₀ values were calculated using non-linear regression curve fit (robust fit).

[2] = molecular target: T1, mouse 4-1BB on activated mouse …; assay: flow cytometry, activated murine CD4 T cells
Protocol: as §1

[3] = molecular target: T2, recombinant human OX40 His (human); assay: SPR, captured IgG, OX40 His analyte
T2 construct: ectodomain with avi and hexahistidine tag; also called human Ox40 avi His
T2 chain: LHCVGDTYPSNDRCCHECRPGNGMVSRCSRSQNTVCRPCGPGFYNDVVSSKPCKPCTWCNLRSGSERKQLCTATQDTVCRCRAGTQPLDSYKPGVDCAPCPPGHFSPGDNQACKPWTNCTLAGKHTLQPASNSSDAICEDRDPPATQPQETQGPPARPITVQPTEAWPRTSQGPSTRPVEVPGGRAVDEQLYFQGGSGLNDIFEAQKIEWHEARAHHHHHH
Protocol: (§2) All SPR experiments were performed on a Biacore T200 at 25° C. with HBS-EP as running buffer (0.01 M HEPES pH 7.4, 0.15 M NaCl, 3 mM EDTA, 0.005% Surfactant P20, Biacore, Freiburg/Germany).
Setup 2) Anti-human Fc antibody (Biacore, Freiburg/Germany) was directly coupled on a CM5 chip at pH 5.0 using the standard amine coupling kit (Biacore, Freiburg/Germany). The immobilization level was approximately 8000 RU. […] The dissociation was monitored for 120 seconds. Bulk refractive index differences were corrected for by subtracting the response obtained on reference flow cell.

[4] = molecular target: T3, recombinant human OX40 Fc(kih) (human, UniProt P0DOX5 223-449 = IgG part, biotin on C-terminal Avi tag where used biotinylated); assay: SPR, captured IgG, OX40 Fc(kih) analyte
T3 construct: antigen Fc knob chain plus Fc hole chain; also called monomeric human OX40 antigen Fc(kih) fusion; biotinylated human OX40
Protocol: as §2
Setup 1) Anti-human Fab antibody (Biacore, Freiburg/Germany) was directly coupled on a CM5 chip at pH 5.0 using the standard amine coupling kit (Biacore, Freiburg/Germany). The immobilization level was approximately 9000 RU. […] The dissociation was monitored for 120 seconds. Bulk refractive index differences were corrected for by subtracting the response obtained on reference flow cell.

human OX40 on cells [5] = molecular target: T4, human OX40 on cells (human, UniProt P43489 29-277); assay: flow cytometry, activated human CD4 T cells
T4 sequence: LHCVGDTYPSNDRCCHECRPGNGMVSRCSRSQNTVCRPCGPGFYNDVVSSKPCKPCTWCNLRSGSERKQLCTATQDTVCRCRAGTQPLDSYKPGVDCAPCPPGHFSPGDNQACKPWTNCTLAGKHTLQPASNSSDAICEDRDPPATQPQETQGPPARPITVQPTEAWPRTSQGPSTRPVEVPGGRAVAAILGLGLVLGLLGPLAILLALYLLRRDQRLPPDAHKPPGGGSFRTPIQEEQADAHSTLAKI

human OX40 on cells [6] = molecular target: T4, human OX40 on cells; assay: flow cytometry, activated human CD4 T cells; remark: listed apart in the source
Protocol: Plates were centrifuged 4 minutes with 400×g and at 4° C. and supernatant was flicked off. Cell were washed once with 200 μL 4° C. cold FACS buffer (DPBS supplied with 2% FBS, 5 mM EDTA pH8 (Amresco, Cat. No. E177) and 7.5 mM Sodium azide (Sigma-Aldrich S2002)). […] Plates were washed four times with 200 μL/well 4° C. FACS buffer to remove unbound construct.
Plates where washed twice with 200 μL/well 4° C.

[7] = molecular target: recombinant cynomolgus OX40 Fc(kih) (cynomolgus, UniProt P0DOX5 223-449 = IgG part, biotin on C-terminal Avi tag where used biotinylated); assay: SPR, captured IgG, cyno OX40 Fc(kih) analyte
Protocol: as §2
Anti-human Fab antibody (Biacore, Freiburg/Germany) was directly coupled on a CM5 chip at pH 5.0 using the standard amine coupling kit (Biacore, Freiburg/Germany). The immobilization level was approximately 9000 RU. […] The dissociation was monitored for 120 seconds. Bulk refractive index differences were corrected for by subtracting the response obtained on reference flow cell.

human OX40 on cells [8] = molecular target: T4, human OX40 on cells; assay: cell-based or functional assay
human OX40 on cells [9] = molecular target: T4, human OX40 on cells; assay: cell-based or functional assay; remark: listed apart in the source
[10] = molecular target: T5, human fibroblast activation protein (huFAP) on cells (human, UniProt Q12884 1-760); assay: flow cytometry, WM266-4 cells
T5 construct: also called NIH/3T3-huFAP clone 39; NIH/3T3-huFAP clone 19

[11] = molecular target: T6, recombinant cynomolgus GITR Fc(kih) (cynomolgus, UniProt P0DOX5 223-449 = IgG part, biotin on C-terminal Avi tag where used biotinylated); assay: SPR, captured IgG, GITR Fc(kih) analyte
T6 construct: also called cy GITR-Fc
Protocol: (§3) In the same experiment, the affinities of the interaction between the GITR antibody (human IgG1 P329GLALA) to recombinant GITR (human and cyno) were determined. Anti-human Fab antibody (Biacore, Freiburg/Germany) was directly coupled on a CM5 chip at pH 5.0 using the standard amine coupling kit (Biacore, Freiburg/Germany). The immobilization level was approximately 7000 RU. The GITR antibody was captured for 90 seconds at 5 nM. […] The dissociation was monitored for 180 seconds. Bulk refractive index differences were corrected for by subtracting the response obtained on reference flow cell.

[12] = molecular target: T7, recombinant human GITR Fc(kih) (human, UniProt P0DOX5 223-449 = IgG part, biotin on C-terminal Avi tag where used biotinylated); assay: SPR, captured IgG, GITR Fc(kih) analyte
T7 construct: also called hu GITR-Fc; human monomeric GITR-Fc fusion
Protocol: as §3

[13] = molecular target: T8, recombinant murine GITR Fc(kih) (murine, UniProt P0DOX5 223-449 = IgG part, biotin on C-terminal Avi tag); assay: SPR Biacore T200
T8 construct: also called mu GITR-Fc
Protocol: All SPR experiments were performed on a Biacore T200 at 25° C. with HBS-EP as running buffer (0.01 M HEPES pH 7.4, 0.15 M NaCl, 3 mM EDTA, 0.005% Surfactant P20, Biacore, Freiburg/Germany). In the same experiment, the species selectivity and the avidity of the interaction between the GITR binder (human IgG1 P329GLALA), and recombinant GITR (human, cyno and murine) was determined. […] Immobilization levels up to 100 resonance units (RU) were used.
Anti-GITR human IgG1 P329GLALA antibody was passed at a concentration range from 0.2 to 200 nM (4-fold dilution) with a flow of 30 μL/minute through the flow cells over 120 seconds. Complex dissociation was monitored for 180 seconds. Bulk refractive index differences were corrected for by subtracting the response obtained in a reference flow cell, where no protein was immobilized.

[14] = molecular target: T5, human fibroblast activation protein …; assay: flow cytometry, WM266-4
Protocol: In some assays WM266-4 cells were pre-labeled with PKH-26 Red Fluorescence Cell linker Kit (Sigma, Cat.-No. PKH26GL) as described in Example 2.3.2 to allow separation of these tumor cells from other cells present (e.g. human PBMC).
Plates were centrifuged 4 minutes, 400×g at 4° C. and supernatants were flicked off. Cells were washed once with 200 μL DPBS and pellets were resuspended by a short and gentle vortex. All samples were resuspended in 50 μL/well of 4° C. cold FACS buffer containing the bispecific antigen binding molecules (primary antibody) at the indicated range of concentrations (titrated) and incubated for 120 minutes at 4° C. Afterwards the cells were washed four times with 200 μL 4° C.

[15] = molecular target: T9, murine FAP (His-tagged ectodomain) (mouse, UniProt P97321 27-761); assay: SPR, FAP captured via anti-His, 1:1 fit, apparent KD (bivalent)
T9 construct: also called mu FAP
Protocol: (§4) The capacity of the bispecific constructs to bind human, murine and cynomolgus FAP was assessed by surface plasmon resonance (SPR). All SPR experiments were performed on a Biacore T200 (Biacore) at 25° C. with HBS-EP as running buffer (0.01 M HEPES pH 7.4, 0.15 M NaCl, 3 mM EDTA, 0.005% Surfactant P20, (Biacore).
(§5) Immobilization levels for the anti-His antibody of up to 18000 resonance units (RU) were used.
(§6) Following the capture step, the bispecific constructs as well as control molecules were immediately passed over the chip surface at a concentration ranging from 0.006-100 nM with a flow rate of 30 μL/minute for 280 s and a dissociation phase of 180 s. Bulk refractive index differences were corrected for by subtracting the response obtained in a reference flow cell, where no FAP was immobilized. Affinity was determined using the Langmuir 1:1 curve fitting. For bivalent binding the same 1:1 fitting was used leading to an apparent KD value.

[16] = molecular target: T5, human fibroblast activation protein …; assay: flow cytometry, WM266-4; remark: listed apart in the source
[17] = molecular target: T10, human FAP (His-tagged ectodomain) (human, UniProt Q12884 27-760); assay: SPR, FAP captured via anti-His, 1:1 fit
T10 construct: SPR texts say 'human FAP' or 'His-tagged ... dimeric FAP'; also called hu FAP; human FAP (analyte 2)
Protocol: as §4, §5, §6

[18] = molecular target: T9, murine FAP (His-tagged ectodomain); assay: SPR, FAP captured via anti-His, 1:1 fit
Protocol: as §4, §5, §6

[19] = molecular target: T11, cynomolgus FAP (His-tagged ectodomain) (cynomolgus, UniProt Q12884 27-760 (human entry)); assay: SPR, FAP captured via anti-His, 1:1 fit
T11 construct: also called cynoFAP
Protocol: as §4, §5, §6

[20] = molecular target: T10, human FAP (His-tagged ectodomain); assay: SPR, FAP captured via anti-His, 1:1 fit, apparent KD (bivalent)
Protocol: as §4, §5, §6

T1 sequence (P20334 24-256 limits assumed): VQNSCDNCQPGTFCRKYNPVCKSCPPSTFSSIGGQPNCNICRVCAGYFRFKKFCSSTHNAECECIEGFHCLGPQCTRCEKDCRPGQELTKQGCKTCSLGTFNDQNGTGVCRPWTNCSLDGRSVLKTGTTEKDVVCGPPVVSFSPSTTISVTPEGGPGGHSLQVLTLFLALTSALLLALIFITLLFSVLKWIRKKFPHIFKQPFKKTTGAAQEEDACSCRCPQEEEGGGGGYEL

B1: 20G2 mu IgG1 κ DAPG (antibody, V domains shown)
VH: QVQLVQSGAEVKKPGSSVKVSCKASGGTFSSYAISWVRQAPGQGLEWMGGIIPIFGTANYAQKFQGRVTITADKSTSTAYMELSSLRSEDTAVYYCARSYYWESYPFDYWGQGTTVTVSS
VL: DIQMTQSPSTLSASVGDRVTITCRASQSISSWLAWYQQKPGKAPKLLIYDASSLESGVPSRFSGSGSGTEFTLTISSLQPDDFATYYCQQQHSYYTFGQGTKVEIK
notes: mouse IgG1 kappa with DAPG mutations; also called 20G2 mouse IgG1 DAPG
EC50 [1]: 17.9 nM
EC50 [2]: 11.2 nM

B3: 8H9 P329GLALA IgG1 (antibody, V domains shown)
VH: QVQLVQSGAEVKKPGSSVKVSCKASGGTFSSYAISWVRQAPGQGLEWMGGIIPIFGTANYAQKFQGRVTITADKSTSTAYMELSSLRSEDTAVYYCAREYGWMDYWGQGTTVTVSS
VL: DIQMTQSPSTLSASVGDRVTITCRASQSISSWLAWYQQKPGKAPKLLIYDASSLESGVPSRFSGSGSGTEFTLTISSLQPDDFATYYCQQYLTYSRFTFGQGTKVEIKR
notes: anti-OX40; also called clone 8H9 hu IgG1
Kd [3]: 31 nM
koff [3]: 0.002 s⁻¹
kon [3]: 65000 M⁻¹ s⁻¹
Kd [4]: 28 nM
koff [4]: 0.0045 s⁻¹
kon [4]: 160000 M⁻¹ s⁻¹
EC50 (human OX40 on cells [5]): 0.59 nM
EC50 (human OX40 on cells [6]): 0.59 nM
Kd [7]: 670 nM
koff [7]: 0.096 s⁻¹
kon [7]: 140000 M⁻¹ s⁻¹
EC50 of rescuing suboptimal TCR stimulation with plate-immobilized anti-OX40 binder (preactivated human CD4 T cells) (human OX40 on cells [8]): 0.003 nM
EC50 of NFκB activation in HeLa_hOx40_NFκB_luc1 reporter cells with secondary anti-human IgG Fcγ antibody (human OX40 on cells [9]): 0.66 nM
binding result [10]: no binding

B7: 6C8 P329GLALA IgG1 (antibody, V domains shown)
VH: QVTLRESGPALVKPTQTLTLTCTFSGFSLSTSGMGVGWIRQPPGKALEWLAHIWWDDDKYYQPSLKSRLTISKDTSKNQVVLTMTNMDPVDTATYYCARTRRYFPFAYWGQGTLVTVSS
VL: EIVMTQSPATLSVSPGERATLSCKASQNVGTNVAWYQQKPGQAPRLLIYSASYRYSGIPARFSGSGSGTEFTLTISSLQSEDFAVYYCQQYNTDPLTFGGGTKVEIKR
notes: prepared according to WO 2006/105021; also called benchmark antibody 6C8
Kd [11]: 190 nM
koff [11]: 0.014 s⁻¹
kon [11]: 73000 M⁻¹ s⁻¹
Kd [12]: 30 nM
koff [12]: 0.0011 s⁻¹
kon [12]: 38000 M⁻¹ s⁻¹
binding result [13]: no binding (tested: 0.2 to 200 nM IgG)

B8: OX40(49B4)/FAP(4B9) P329GLALA IgG1 1+1 (bispecific antibody, V domains shown)
VH 1: QVQLVQSGAEVKKPGSSVKVSCKASGGTFSSYAISWVRQAPGQGLEWMGGIIPIFGTANYAQKFQGRVTITADKSTSTAYMELSSLRSEDTAVYYCAREYYRGPYDYWGQGTTVTVSS
VL 1: DIQMTQSPSTLSASVGDRVTITCRASQSISSWLAWYQQKPGKAPKLLIYDASSLESGVPSRFSGSGSGTEFTLTISSLQPDDFATYYCQQYSSQPYTFGQGTKVEIK
VH 2: EVQLLESGGGLVQPGGSLRLSCAASGFTFSSYAMSWVRQAPGKGLEWVSAIIGSGASTYYADSVKGRFTISRDNSKNTLYLQMNSLRAEDTAVYYCAKGWFGGFNYWGQGTLVTVSS
VL 2: EIVLTQSPGTLSLSPGERATLSCRASQSVTSSYLAWYQQKPGQAPRLLINVGSRRATGIPDRFSGSGSGTDFTLTISRLEPEDFAVYYCQQGIMLPPTFGQGTKVEIK
notes: only variable domains of 49B4 and 4B9; human IgG1 P329G LALA
Kd [17]: 0.752 nM
Kd [18]: 4.79 nM
Kd [19]: 0.532 nM

Next, values leading:

EC50 [1]: 18.5 nM
EC50 [2]: 9.92 nM
B2: 20G2 mu IgG1 κ wt (antibody, V domains shown)
VH: QVQLVQSGAEVKKPGSSVKVSCKASGGTFSSYAISWVRQAPGQGLEWMGGIIPIFGTANYAQKFQGRVTITADKSTSTAYMELSSLRSEDTAVYYCARSYYWESYPFDYWGQGTTVTVSS
VL: DIQMTQSPSTLSASVGDRVTITCRASQSISSWLAWYQQKPGKAPKLLIYDASSLESGVPSRFSGSGSGTEFTLTISSLQPDDFATYYCQQQHSYYTFGQGTKVEIK
notes: mouse IgG1 kappa wild type; also called 20G2 mouse IgG1 wildtype

Kd [11]: 1200 nM
Kd [12]: 29 nM
binding result [13]: no binding (tested: 0.2 to 200 nM IgG)
B4: 8A06 P329GLALA IgG1 (antibody, V domains shown)
VH: QVQLVQSGAEVKKPGSSVKVSCKASGGTFSSYAISWVRQAPGQGLEWMGGIIPIFGTANYAQKFQGRVTITADKSTSTAYMELSSLRSEDTAVYYCARGYYAIDYWGQGTTVTVSS
VL: SSELTQDPAVSVALGQTVRITCQGDSLRSYYASWYQQKPGQAPVLVIYGKNNRPSGIPDRFSGSSSGNTASLTITGAQAEDEADYYCNSPQTSGSAVFGGGTKLTVLG
notes: also called anti-GITR 8A06 IgG

EC50 [14]: 2.88 nM
EC50 (human OX40 on cells [5]): 0.93 nM
B5: 8H9/FAP P329GLALA IgG1 2+2 (bispecific antibody)
heavy: not shown
light 1: not shown
light 2: EIVLTQSPGTLSLSPGERATLSCRASQSVSRSYLAWYQQKPGQAPRLLIIGASTRATGIPDRFSGSGSGTDFTLTISRLEPEDFAVYYCQQGQVIPPTFGQGTKVEIKSSASTKGPSVFPLAPSSKSTSGGTAALGCLVKDYFPEPVTVSWNSGALTSGVHTFPAVLQSSGLYSLSSVVTVPSSSLGTQTYICNVNHKPSNTKVDKKVEPKSCD
notes: also called bispecific bivalent 2+2 construct 8H9; 8H9 FAP 2+2

Kd [15]: 0.00441 nM
EC50 [16]: 5.51 nM
B6: OX40(49B4)/FAP(28H1) P329GLALA IgG1 4+2 (bispecific antibody)
heavy: not shown
light 1: DIQMTQSPSTLSASVGDRVTITCRASQSISSWLAWYQQKPGKAPKLLIYDASSLESGVPSRFSGSGSGTEFTLTISSLQPDDFATYYCQQYSSQPYTFGQGTKVEIKRTVAAPSVFIFPPSDRKLKSGTASVVCLLNNFYPREAKVQWKVDNALQSGNSQESVTEQDSKDSTYSLSSTLTLSKADYEKHKVYACEVTHQGLSSPVTKSFNRGEC
light 2: EVQLLESGGGLVQPGGSLRLSCAASGFTFSSHAMSWVRQAPGKGLEWVSAIWASGEQYYADSVKGRFTISRDNSKNTLYLQMNSLRAEDTAVYYCAKGWLGNFDYWGQGTLVTVSSASVAAPSVFIFPPSDEQLKSGTASVVCLLNNFYPREAKVQWKVDNALQSGNSQESVTEQDSKDSTYSLSSTLTLSKADYEKHKVYACEVTHQGLSSPVTKSFNRGEC
notes: also called 4+2 (49B4/28H1)

Kd [20]: 0.933 nM
Kd [15]: 0.00049 nM
B9: 28H1 IgG (antibody, V domains shown)
VH: EVQLLESGGGLVQPGGSLRLSCAASGFTFSSHAMSWVRQAPGKGLEWVSAIWASGEQYYADSVKGRFTISRDNSKNTLYLQMNSLRAEDTAVYYCAKGWLGNFDYWGQGTLVTVSS
VL: EIVLTQSPGTLSLSPGERATLSCRASQSVSRSYLAWYQQKPGQAPRLLIIGASTRATGIPDRFSGSGSGTDFTLTISRLEPEDFAVYYCQQGQVIPPTFGQGTKVEIK
notes: anti-FAP control IgG
